The target in this experiment is mouse IL-17F/IL-17A heterodimer (mouse). Briefly: cell-based or functional assay.
Sequence of mouse IL-17F/IL-17A heterodimer (mouse) (Q62386 26-158, chain 1 of 2): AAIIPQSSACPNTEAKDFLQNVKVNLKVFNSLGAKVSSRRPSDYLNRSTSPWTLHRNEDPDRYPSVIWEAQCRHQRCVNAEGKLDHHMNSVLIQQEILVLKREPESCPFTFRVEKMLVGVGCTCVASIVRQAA
Sequence of mouse IL-17F/IL-17A heterodimer (mouse) (Q7TNI7 29-161, chain 2 of 2, further chain): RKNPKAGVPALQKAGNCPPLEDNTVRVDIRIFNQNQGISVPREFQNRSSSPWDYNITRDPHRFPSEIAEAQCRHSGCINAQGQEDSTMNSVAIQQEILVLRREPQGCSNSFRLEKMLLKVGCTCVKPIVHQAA

As for “anti-mouse IL-17A antibody 50104 (R&D Systems)”, the decrease in CXCL1 production by MLE-12 cells induced by 200 ng/ml mIL-17F/IL-17A with 80 µg/ml antibody is 85%.

These data come from patent publication US20080241130A1.
